# Assay results as given in patent publication US20220275053A1, “MODIFIED […] PEPTIDE LIGANDS” (BicycleTx Limited, priority 2019, published 2022).
# *1 amine or outer side, *2 acyl side, *3 side chain or, on linkers, in order; H or OH if unused. Bridges are numbered along the chain shown (N, C = ends). Where no end group is shown, it is not given here. [ ]: non-standard residue; d: D form. PYA = propargyl-acid (alkyne used for click attachment); TATA = O=C(CC[*:1])N1CN(C(=O)CC[*:2])CN(C(=O)CC[*:3])C1; tBuAla = CC(C)(C)C[C@H](N)C(=O)O; Nle = CCCC[C@H](N)C(=O)O
# B1: BCY9932 (peptide)
# peptide: ACIEEGQYCFADPYXCX
# modifications: N-terminal acetyl; Nle (norleucine) at position 12 of the core; C-terminal Dap(PYA) amide (CONH2); the three Cys cyclised on the TATA scaffold; joined through PYA to spacer SA (n = 10) on central hinge moiety B; Alexa Fluor 488 on the hinge without spacer (formula (II))
# notes: also called fluorescent CD137 multimer; fluorescent trimer
# B2: BCY9931 (peptide)
# peptide: ACIEEGQYCFADPYXCX
# modifications: N-terminal acetyl; Nle (norleucine) at position 12 of the core; C-terminal Dap(Lys(PYA)) amide (CONH2); the three Cys (Ci, Cii, Ciii) cyclised on the TATA scaffold; joined through PYA to spacer SA (n = 23) on central hinge moiety A; Alexa Fluor 488 conjugated to one of the four peptides (formula (I))
# notes: also called fluorescent CD137 multimer; fluorescent tetramer
# B3: BCY15416 (peptide)
# peptide: Ac-C[tBuAla]PE[dK](PYA)PYCFADPY[Nle]CA
# modifications: linker 1-8-15 via TATA; also: dimer: joined through PYA directly to central hinge moiety D, Alexa Fluor 488 on the hinge without spacer (formula (II))
# notes: also called fluorescently labelled CD137 dimer; CD137 dimer
# Legend:
# [1] = target: T1, human CD137 (human, UniProt Q07011 24-255); assay: flow cytometry, direct binding to activated human CD8+/CD137+ T cells
# T1 construct: whole, on cells; Endogenous receptor on CD3-stimulated human PBMCs or purified CD8+ T cells; also called CD137 receptor; 4-1BB
# T1 sequence (Q07011 24-255): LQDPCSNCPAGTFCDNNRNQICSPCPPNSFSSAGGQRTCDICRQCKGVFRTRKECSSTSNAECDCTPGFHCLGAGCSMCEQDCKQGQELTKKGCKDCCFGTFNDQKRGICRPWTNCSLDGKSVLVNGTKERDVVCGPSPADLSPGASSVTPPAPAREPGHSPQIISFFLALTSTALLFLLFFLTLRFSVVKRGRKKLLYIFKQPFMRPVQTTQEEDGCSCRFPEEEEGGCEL
# [2] = target: T1, human CD137; assay: flow cytometry on CD3-stimulated human PBMCs, apparent affinity (kd,app), CD8+ CD137+ population, donor 217071
# Protocol: (§1) Plates were then incubated for 1 hour at 37° C., 5% CO₂. Post-incubation, plate was centrifuged at 500 rpm for 5 minutes and supernatant discarded. Samples were then washed once in 200 μL of 1× phosphate buffer saline (PBS; Gibco™ 10-010-023) at 500 rpm for 5 minutes. Cells were resuspended in 200 μL of PBS and transferred to a 96-well V-bottom polypropylene plate (Greiner Bio-One 651201). Samples were then centrifuged at 500 rpm for 5 minutes and supernatant was discarded.
# (§2) Preparation of samples for flow cytometry: Zombie Violet™ Fixable Viability Dye (BioLegend® 423113) was prepared as a 1:1000 dilution in PBS and 100 μL of viability dye was added to each well and incubated in the dark at 4° C. for 30 minutes. Subsequently, wells were washed with 100 μL of PBS for 5 minutes at 500 rpm and supernatant was discarded. […] Cells resuspended in 200 μL of stain buffer were kept at 4° C. and in the dark until read by BD FACSCelesta™ flow cytometer and FCS files were analyzed in FlowJo™.
# (§3) Cells were gated on lymphocytes→singlets→live→CD4+ or CD8+→CD137+/− and the geometric mean of Alexa Fluor® 488 (conjugated to BCY15416) was calculated from the CD137+ and CD137− populations shown below. […] Calculated binding affinity (kd,app) for each donor appear in Table 5. […]
# [3] = target: T1, human CD137; assay: flow cytometry on CD3-stimulated human PBMCs, apparent affinity (kd,app), CD4+ CD137+ population, donor 214047
# Protocol: as §1, §2, §3
# [4] = target: T1, human CD137; assay: flow cytometry on CD3-stimulated human PBMCs, apparent affinity (kd,app), CD4+ CD137+ population, donor 214026
# Protocol: as §1, §2, §3
# [5] = target: T1, human CD137; assay: flow cytometry on CD3-stimulated human PBMCs, apparent affinity (kd,app), CD8+ CD137+ population, donor 214047
# Protocol: as §1, §2, §3
# [6] = target: T1, human CD137; assay: flow cytometry on CD3-stimulated human PBMCs, apparent affinity (kd,app), CD4+ CD137+ population, donor 217071
# Protocol: as §1, §2, §3
# [7] = target: T1, human CD137; assay: flow cytometry on CD3-stimulated human PBMCs, apparent affinity (kd,app), CD8+ CD137+ population, donor 214026
# Protocol: as §1, §2, §3
Binder,binding result [1],Kd [2],Kd [3],Kd [4],Kd [5],Kd [6],Kd [7]
B1,binds,,,,,,
B2,binds,,,,,,
B3,,0.13 nM,0.144 nM,0.875 nM,0.118 nM,0.13 nM,0.114 nM
